Assay results as given in US20260131000A1 (Memorial Sloan Kettering, published 2026).
Residue numbers refer to the chain shown, from its start. Blank lines part the entries; values can stand above or below the binder they belong to.

How the values were obtained:
[1] = target: L1CAM endogenously expressed on MCF-7 and MDA-MB-231 cells (UniProt P32004); experiment: flow cytometry, MCF-7 cells
[2] = target: L1CAM endogenously expressed on MCF-7 and MDA-MB-231 cells (UniProt P32004); experiment: flow cytometry, MDA-MB-231 cells
[3] = target: human L1CAM overexpressed on HEK293T cells (human, UniProt P32004 20-1257); experiment: flow cytometry on HEK293T cells overexpressing L1CAM (panel HEK293T-L1CAM), GMFI ratio to 2nd only against log[Fab], nM
From the text: A total of 11 humanized 76H12 Fab variants (Fabs 2-12) were generated in addition to a chimeric 76H12 Fab (Fab 1) containing the parental murine VH and VL sequences. The chimeric Fab served as the benchmark for comparative assessment of humanized Fab variants. […] All humanized variants bound to the L1CAM overexpressing cells, with most binding comparably to the chimeric 76H12 Fab. […] Here, recombinant L1CAM-Fc fusion protein was immobilized onto anti-Human IgG Fc Capture (AHC) biosensors and binding of Fabs was measured kinetically over a 3-200 nM concentration range. Kinetic data were fitted to a 1:1 binding model to compute association (kₒₙ) and dissociation (koff) rate constants, in addition to equilibrium dissociation constants (KD) as shown in Table 59. […] From these, Fab 3 represents the preferred humanized variant given higher identity to human germline IGHV1-46 and IGKV1-39 sequences resulting from fewer human-to-murine framework back mutations.

Sequence of human L1CAM overexpressed on HEK293T cells (P32004 20-1257): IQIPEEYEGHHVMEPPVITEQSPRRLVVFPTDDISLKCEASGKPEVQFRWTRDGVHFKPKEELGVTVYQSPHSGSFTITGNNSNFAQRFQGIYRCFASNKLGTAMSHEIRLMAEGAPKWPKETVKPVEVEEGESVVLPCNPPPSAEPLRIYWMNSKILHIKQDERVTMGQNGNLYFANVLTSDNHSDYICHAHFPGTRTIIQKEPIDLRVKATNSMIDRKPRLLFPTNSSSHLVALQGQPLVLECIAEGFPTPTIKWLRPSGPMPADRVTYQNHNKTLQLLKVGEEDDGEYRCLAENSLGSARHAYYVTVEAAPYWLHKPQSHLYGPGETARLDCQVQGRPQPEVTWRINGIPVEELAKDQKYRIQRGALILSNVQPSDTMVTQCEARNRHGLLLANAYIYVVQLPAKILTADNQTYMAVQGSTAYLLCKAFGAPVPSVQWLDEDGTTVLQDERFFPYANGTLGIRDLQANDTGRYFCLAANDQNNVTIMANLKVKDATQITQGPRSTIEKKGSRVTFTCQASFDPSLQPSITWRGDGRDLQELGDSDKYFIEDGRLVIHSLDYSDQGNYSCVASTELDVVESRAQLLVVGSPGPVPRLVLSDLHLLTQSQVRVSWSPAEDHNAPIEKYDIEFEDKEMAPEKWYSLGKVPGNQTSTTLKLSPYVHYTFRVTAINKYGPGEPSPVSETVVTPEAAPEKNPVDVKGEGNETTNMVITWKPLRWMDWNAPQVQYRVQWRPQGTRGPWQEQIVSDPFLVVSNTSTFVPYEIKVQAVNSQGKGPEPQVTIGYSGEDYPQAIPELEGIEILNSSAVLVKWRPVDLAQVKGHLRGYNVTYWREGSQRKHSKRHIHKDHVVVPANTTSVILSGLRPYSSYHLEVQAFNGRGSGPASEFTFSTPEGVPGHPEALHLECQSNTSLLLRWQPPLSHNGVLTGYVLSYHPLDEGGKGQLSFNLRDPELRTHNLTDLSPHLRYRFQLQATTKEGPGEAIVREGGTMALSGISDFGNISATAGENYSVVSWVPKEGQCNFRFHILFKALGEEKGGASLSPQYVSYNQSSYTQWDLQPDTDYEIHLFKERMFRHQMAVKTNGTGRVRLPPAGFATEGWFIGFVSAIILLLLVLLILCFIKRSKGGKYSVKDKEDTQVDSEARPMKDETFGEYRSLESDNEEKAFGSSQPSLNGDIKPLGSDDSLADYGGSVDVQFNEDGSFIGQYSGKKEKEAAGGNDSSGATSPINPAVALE

- EC50 [1]: 1.2 nM
- EC50 [2]: 1.7 nM
B1: 13F04 (antibody, V domains shown)
VH: QVQLQQPGAELVKPGASVKLSCKASGYIFISYWMHWVKQRPGQGLEWIGEINPRNGRTNYNEKFKSKATLTVDKSSSTAYMQLTSLTSEDSAVYYCARGGDYGGSFDYWGQGTTLTVSS
VL: DIVLTQSPASLAVSLGQRATISCRASESVDSYGNSFMHWYQQKPGQPPKLLIYRASNLESGIPARFSGSGSRTDFTLTVNPVEADDVATYYCQQSNEDPWTFGGGTKLEIK

- EC50 (read off the curve) [3]: ~70 nM
B2: Fab Construct 1 (chimeric 76H12 Fab, parental mouse 76H12 V-regions) (Fab, V domains shown)
VH: QVQLQQPGSDLVRPGTSVKLSCKASGYTFTSYWMHWVKQRPGQGLEWIGNVYPGSGSTKYDEKFKTKATLTVDTSSNTAYMELSSLTSEDSAVYYCTRPGNYEGFAYWGQGTLVTVSA
VL: B1 VL with D1N, N34S, R54L, I62V, V79I, N80D, V87A, S95N
notes: domain: CH1; also called Fab 1; chimeric Fab; not shown: constant region of human kappa light chain

- EC50 [1]: 5.3 nM
- EC50 [2]: 8.9 nM
B3: 14A10 (antibody, V domains shown)
VH: EVQMVESGGGLVQPGGSLRLSCAAPGFIFSSYNMNWVRQAPGKGLEWVSYISSSSSTTYYADSVKGRFTISRDNAKNSLYLQMNSLRDEDTAVYYCASLYSGYDYYYYYGMDVWGQGTTVTVSS
VL: DIVMTQTPLSSPVSLGQPASISCRSSQSLVHSDGNTYLSWLQQRPGQPPRVLIYKISKRFSGVPDRFSGSGAGTDFTLKISRVEAEDVGVYYCMQATQFPFTFGPGTKVDIK

- EC50 (read off the curve) [3]: ~200 nM
B4: Fab Construct 2 (humanized 76H12 Fab) (Fab, V domains shown)
VH: QVQLVQSGAEVKKPGASVKVSCKASGYTFTSYWMHWVRQAPGQGLEWMGNVYPGSGSTKYAQKFQGRVTMTRDTSTSTVYMELSSLRSEDTAVYYCARPGNYEGFAYWGQGTLVTVSS
VL: NIQLTQSPSSLSASVGDRVTITCRASESVDSYGSSFMHWYQQKPGKPPKLLIYLASNLESGVPSRFSGSGSGTDFTLTISSLQPEDFATYYCQQNNEDPWTFGQGTKLEIK
notes: domain: CH1; also called Fab 2; h76H12_Hv0/h76H12_Lv3; not shown: constant region of human kappa light chain

- EC50 [1]: 0.35 nM
- EC50 [2]: 0.9 nM
B5: 143G03 (antibody, V domains shown)
VH: QVQLRQSGAELVRPGTSVKMSCKASGYTFTNYYIHWVKQRPGQGLEWIGKIGPGSGSPYYNGMFKDKATLTVDTSSSTAYMQLSSLTSEDSAVYFCARWLLPFDYWGQGTTLTVSS
VL: QIVLSQSPGILSASPGEKVTMTCRASSSVNYMHWYQQKSGSSPKPWIFATSILASGVPPRFSGSGSGTSYSLTISSVEAEDTATYYCQQFSSDPLTFGAGTKLELK

- EC50 [1]: 4.8 nM
- EC50 [2]: 6.7 nM
B6: 13G04 (antibody, V domains shown)
VH: QVQLVQSGAEVKKPGASVKVSCKASGYTFIGYYLHWVRQAPGQGLEWMGWINPNSGGTNSAQKFQGRVTMTRDTSISTTYMDLSRLRSDDTAVYYCARGGLERRDAFDIWGQGTLVTVSS
VL: DIQMTQSPSTLSASVGDRVTITCRASQSISNWLAWYQQKPGKAPNLLIYKASSLESGVPSRFSGSGSGTEFTLTISSLQPDDFATYYCQQYDTYRTFGQGTKVEIK
